{"source": "patent US20160303217A1", "about": "(published 2016)", "binders": {"B1": {"name": "H. parasuis TbpB 27-577 (amino acid 27-577) derived from the Nagasaki strain Hp5, purified recombinant truncated protein (protein)", "chain": "FDLEDVQPNKTTGVSKEEYQDVETDKKVKEQLGELMEPALGYVVKVPVSQSGARRTEISNPEAITDEDLKKIPNHETIKSVAEQNYGWVVDKTADKTMKYVRSGYAIDVDHYGTRDKGYVFYKGINPSKELPQGLVLTYQGEWDFTSDANLDAKRPNSNPEFNGYGPGQRIATTSANAKGRTYTSEFEVDFSAKKLKGKLNSKTANTESLERYSIEAEPKGNRFRGKAIAKDTSDAILGKSSDYLEGGFYGPKAEELAGKFITNDKSLFAVFSAKHNGSNVDTVRIIDASKIDLTHFNSSELTNFGDASVLIIDGKKMDLAGTDFKNSKTIEINGKTMVAVACCSNLEYMKFGQLWQKEGETAKDNSLFLQGERTTTDKMPKGGNYKYIGTWDAQVSKENNWVATADDDRKAGYRTEFDVDFGNKNLSGKLFDKNGVNPVFTVDAKINGNGFTGKAKTSDAGFALDSDSSRYDNVKFSDVAVNGGFYGPTAAELGGQFFHKSDNGSVGAIFGAKRQVKK"}, "B2": {"name": "porcine transferrin (ligand)", "chain": "VAQKTVRWCTISNQEANKCSSFRENMSKAVKNGPLVSCVKKSSYLDCIKAIRDKEADAVTLDAGLVFEAGLAPYNLKPVVAEFYGQKDNPQTHYYAVAVVKKGSNFQWNQLQGKRSCHTGLGRSAGWIIPMGLLYDQLPEPRKPIEKAVASFFSSSCVPCADPVNFPKLCQQCAGKGAEKCACSNHEPYFGYAGAFNCLKEDAGDVAFVKHSTVLENLPDKADRDQYELLCRDNTRRPVDDYENCYLAQVPSHAVVARSVDGQEDSIWELLNQAQEHFGRDKSPDFQLFSSSHGKDLLFKDSANGFLKIPSKMDSSLYLGYQYVTALRNLREEISPDSSKNECKKVRWCAIGHEETQKCDAWSINSGGKIECVSAENTEDCIAKIVKGEADAMSLDGGYIYIAGKCGLVPVLAENYKTEGENCVNTPEKGYLAVAVVKKSSGPDLNWNNLKGKKSCHTAVDRTAGWNIPMGLLYNKINSCKFDQFFGEGCAPGSQRNSSLCALCIGSERAPGRECLANNHERYYGYTGAFRCLVEKGDVAFVKDQVVQQNTDGKNKDDWAKDLKQMDFELLCQNGAREPVDNAENCHLARAPNHAVVARDDKVTCVAEELLKQQAQFGRHVTDCSSSFCMFKSNTKDLLFRDDTQCLARVGKTTYESYLGADYITAVANLRKCSTSKLLEACTFHSAKNPRVETTT"}}, "key": {"porcine transferrin": {"target": "B2", "assay": "BLI"}, "[1]": {"target": "A. pleuropneumoniae TbpB 26-528 (amino acid 26-528) derived from strain H87, purified recombinant truncated …", "assay": "SPR"}, "[2]": {"target": "T1, A. pleuropneumoniae TbpB 20-528 (amino acid 20-528) derived from strain H49, purified recombinant truncated …", "assay": "SPR"}, "[3]": {"target": "T1, A. pleuropneumoniae TbpB 20-528 (amino …)", "assay": "ITC"}}, "data": [{"binder": "B1", "values": [{"measurement": "Kd", "setting": "porcine transferrin", "value": 21, "unit": "nM"}]}, {"binder": "B2", "values": [{"measurement": "Kd", "setting": "[1]", "value": 60, "unit": "nM"}, {"measurement": "Kd", "setting": "[2]", "value": 44, "unit": "nM"}, {"measurement": "Kd", "setting": "[3]", "value": 55, "unit": "nM"}]}]}
